In US20170165365A1 (SYMPHOGEN A S, published 2017):

How the values were obtained:
[1] = target: cynomolgus HER2 antigen (cynomolgus monkey); assay: SPR (ProteOn XPR36), IgG captured by anti-human Fc, soluble monovalent antigen, 1:1 fit
[2] = target: T1, human EGFR antigen (Sino Biologicals) (human, UniProt P00533 25-645); assay: ELISA on coated antigen
T1 construct: Bought soluble antigen; also called human antigen
Description: (§1) Antibody-antigen binding was measured by ELISA with coated antigens. Human antigens were obtained from Sino Biologicals. All other antigens were produced in-house by transient expression in CHO or HEK293 cells. Chimeric and humanized antibodies, as well as an isotype control antibody, were incubated with the coated antigens at different concentrations. After wash, bound antibodies were detected by HRP-(horse radish peroxidase)-conjugated secondary antibodies.

mouse EGFR antigen = target: T2, mouse EGFR antigen (mouse, UniProt Q01279 25-647, limits assumed); assay: ELISA on coated antigen
T2 construct: In-house antigen coated for ELISA; also called mouse antigen; murine EGFR
Description: as §1

cynomolgus EGFR antigen = target: T3, cynomolgus EGFR antigen (cynomolgus monkey, UniProt A0A2K5WK39 25-645); assay: ELISA on coated antigen
T3 construct: In-house antigen; also called cynomolgus antigen
Description: as §1

human HER4 antigen = target: T4, human HER4 antigen (human, UniProt Q15303 26-649, limits assumed); assay: ELISA on coated antigen
T4 construct: Antigen coated for ELISA
T4 sequence (looked up): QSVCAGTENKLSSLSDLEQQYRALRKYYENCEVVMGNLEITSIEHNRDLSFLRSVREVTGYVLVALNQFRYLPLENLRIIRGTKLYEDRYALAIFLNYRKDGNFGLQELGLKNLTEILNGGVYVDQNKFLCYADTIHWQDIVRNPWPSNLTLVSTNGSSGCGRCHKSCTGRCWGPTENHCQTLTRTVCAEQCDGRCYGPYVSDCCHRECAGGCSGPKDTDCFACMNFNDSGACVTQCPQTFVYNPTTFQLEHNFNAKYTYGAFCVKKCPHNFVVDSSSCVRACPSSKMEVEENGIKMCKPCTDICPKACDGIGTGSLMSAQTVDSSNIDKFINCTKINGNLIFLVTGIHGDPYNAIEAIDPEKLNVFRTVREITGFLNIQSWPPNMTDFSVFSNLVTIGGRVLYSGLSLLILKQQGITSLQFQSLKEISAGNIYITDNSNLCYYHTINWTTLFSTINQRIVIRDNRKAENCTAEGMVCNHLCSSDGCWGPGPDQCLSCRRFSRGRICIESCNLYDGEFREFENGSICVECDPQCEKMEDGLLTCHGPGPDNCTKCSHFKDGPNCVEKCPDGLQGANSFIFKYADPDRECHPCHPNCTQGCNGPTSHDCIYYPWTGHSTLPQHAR
Description: as §1

cynomolgus HER3 antigen = target: T5, cynomolgus HER3 antigen (cynomolgus monkey, UniProt G7PIG5 20-643); assay: ELISA on coated antigen
T5 construct: In-house antigen; also called cynomolgus antigen
Description: as §1

[3] = target: T6, human HER3 antigen (Sino Biologicals) (human, UniProt P21860 20-643); assay: ELISA on coated antigen
T6 construct: Bought soluble antigen; also called human antigen
Description: as §1

mouse HER2 antigen = target: T7, mouse HER2 antigen (mouse, UniProt P70424 23-653, limits assumed); assay: ELISA on coated antigen
T7 construct: In-house antigen coated for ELISA; also called mouse antigen; murine HER2
Description: as §1

mouse HER3 antigen = target: T8, mouse HER3 antigen (mouse, UniProt Q61526 20-641, limits assumed); assay: ELISA on coated antigen
T8 construct: In-house antigen coated for ELISA; also called mouse antigen; murine HER3
Description: as §1

murine HER4 antigen = target: T9, murine HER4 antigen (mouse, UniProt Q61527 26-652, limits assumed); assay: ELISA on coated antigen
T9 construct: In-house antigen coated for ELISA; also called mouse HER4
T9 sequence (looked up): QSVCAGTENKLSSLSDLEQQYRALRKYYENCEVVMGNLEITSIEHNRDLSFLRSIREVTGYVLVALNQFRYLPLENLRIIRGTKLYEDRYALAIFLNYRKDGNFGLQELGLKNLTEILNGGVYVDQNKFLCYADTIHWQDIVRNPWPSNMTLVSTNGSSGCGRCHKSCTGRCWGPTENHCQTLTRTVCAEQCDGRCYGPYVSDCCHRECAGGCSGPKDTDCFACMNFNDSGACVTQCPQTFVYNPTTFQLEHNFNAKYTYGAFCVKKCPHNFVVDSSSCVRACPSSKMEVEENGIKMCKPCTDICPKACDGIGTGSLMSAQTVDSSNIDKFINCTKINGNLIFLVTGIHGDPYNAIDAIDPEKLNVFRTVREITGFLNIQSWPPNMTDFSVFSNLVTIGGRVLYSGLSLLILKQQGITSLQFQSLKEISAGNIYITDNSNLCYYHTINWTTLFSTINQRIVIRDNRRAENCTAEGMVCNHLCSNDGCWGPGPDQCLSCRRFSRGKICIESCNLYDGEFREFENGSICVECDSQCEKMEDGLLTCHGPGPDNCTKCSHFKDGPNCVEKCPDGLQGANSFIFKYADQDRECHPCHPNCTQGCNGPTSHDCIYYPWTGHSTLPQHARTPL
Description: as §1

T8 sequence (Q61526 20-641 limits assumed): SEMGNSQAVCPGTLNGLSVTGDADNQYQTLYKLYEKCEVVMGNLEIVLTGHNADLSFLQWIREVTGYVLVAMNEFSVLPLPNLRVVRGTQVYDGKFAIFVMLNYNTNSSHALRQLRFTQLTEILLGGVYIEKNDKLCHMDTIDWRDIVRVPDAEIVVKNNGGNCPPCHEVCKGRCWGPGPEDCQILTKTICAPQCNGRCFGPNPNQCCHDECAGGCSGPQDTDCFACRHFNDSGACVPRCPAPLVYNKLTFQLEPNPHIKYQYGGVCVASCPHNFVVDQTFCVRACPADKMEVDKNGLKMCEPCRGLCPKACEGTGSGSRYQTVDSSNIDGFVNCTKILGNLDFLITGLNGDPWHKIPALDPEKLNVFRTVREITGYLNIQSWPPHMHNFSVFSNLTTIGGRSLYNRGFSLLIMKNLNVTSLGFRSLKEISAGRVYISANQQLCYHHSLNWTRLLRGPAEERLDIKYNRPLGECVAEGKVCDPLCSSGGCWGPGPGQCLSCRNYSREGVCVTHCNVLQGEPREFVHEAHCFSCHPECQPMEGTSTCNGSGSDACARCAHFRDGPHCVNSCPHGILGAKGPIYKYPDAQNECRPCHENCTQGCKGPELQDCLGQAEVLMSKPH
T5 sequence (G7PIG5 entry or part of it): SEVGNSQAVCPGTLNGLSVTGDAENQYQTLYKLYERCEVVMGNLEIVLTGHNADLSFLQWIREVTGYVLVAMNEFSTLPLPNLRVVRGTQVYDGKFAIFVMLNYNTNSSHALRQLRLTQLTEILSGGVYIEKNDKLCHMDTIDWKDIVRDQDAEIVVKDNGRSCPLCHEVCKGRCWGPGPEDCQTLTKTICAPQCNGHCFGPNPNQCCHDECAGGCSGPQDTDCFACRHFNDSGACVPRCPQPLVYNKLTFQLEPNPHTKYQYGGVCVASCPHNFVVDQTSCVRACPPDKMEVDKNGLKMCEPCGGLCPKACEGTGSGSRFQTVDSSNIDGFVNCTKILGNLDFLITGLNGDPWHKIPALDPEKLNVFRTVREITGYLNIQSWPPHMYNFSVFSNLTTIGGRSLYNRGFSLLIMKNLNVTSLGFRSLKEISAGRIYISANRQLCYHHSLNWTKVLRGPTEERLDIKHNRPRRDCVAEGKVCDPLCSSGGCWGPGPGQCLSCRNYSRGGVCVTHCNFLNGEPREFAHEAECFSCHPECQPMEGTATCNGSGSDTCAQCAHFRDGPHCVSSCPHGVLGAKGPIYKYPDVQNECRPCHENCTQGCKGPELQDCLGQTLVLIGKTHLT
T7 sequence (P70424 23-653 limits assumed): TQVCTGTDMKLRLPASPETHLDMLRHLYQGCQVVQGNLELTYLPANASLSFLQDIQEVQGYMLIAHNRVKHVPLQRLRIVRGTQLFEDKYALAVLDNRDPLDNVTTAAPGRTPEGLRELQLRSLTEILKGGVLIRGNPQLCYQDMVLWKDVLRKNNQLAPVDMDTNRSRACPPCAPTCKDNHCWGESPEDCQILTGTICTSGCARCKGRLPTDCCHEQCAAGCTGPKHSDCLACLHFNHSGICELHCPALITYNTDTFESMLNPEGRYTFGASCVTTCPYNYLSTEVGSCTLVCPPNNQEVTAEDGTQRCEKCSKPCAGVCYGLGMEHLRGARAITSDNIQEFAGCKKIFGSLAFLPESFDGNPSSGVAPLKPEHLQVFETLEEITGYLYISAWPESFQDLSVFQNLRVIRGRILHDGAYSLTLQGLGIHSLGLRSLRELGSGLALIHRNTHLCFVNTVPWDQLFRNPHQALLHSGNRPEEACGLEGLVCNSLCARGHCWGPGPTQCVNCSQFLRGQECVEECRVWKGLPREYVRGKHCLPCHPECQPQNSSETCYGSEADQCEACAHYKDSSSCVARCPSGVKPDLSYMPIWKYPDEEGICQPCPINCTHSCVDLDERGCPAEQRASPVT

Kd [1]: 2.5 nM
koff [1]: 0.00038 s⁻¹
kon [1]: 150000 M⁻¹ s⁻¹
B1: humanized anti-HER2 antibody 11249 (antibody, V domains shown)
VH: QVQLVQSGAEVKKPGASVKVSCKASGYTFTSHWMHWVRQAPGQGLEWMGNINPSSGGTNYNEKFKSRVTMTVDTSTSTVYMELSSLRSEDTAVYYCARAYYDFSWFVYWGQGTLVTVSS
VL: DIQMTQSPSSLSASVGDRVTITCRSSQDISNYLNWYQQKPGKAPKLLMYISRLHSGVPSRFSGSGSGTDYTFTISSLQPEDIATYYCQQGNTLPLTFGGGTKVEIK
binding result [2]: no binding (tested: 40 nM antibody (negative: OD<0.1))
binding result (mouse EGFR antigen): no binding (tested: 40 nM antibody (negative: OD<0.1))
binding result (cynomolgus EGFR antigen): no binding (tested: 40 nM antibody (negative: OD<0.1))
binding result (human HER4 antigen): no binding (tested: 40 nM antibody (negative: OD<0.1))
binding result (cynomolgus HER3 antigen): no binding (tested: 40 nM antibody (negative: OD<0.1))
binding result [3]: no binding (tested: 40 nM antibody (negative: OD<0.1))
binding result (mouse HER2 antigen): no binding (tested: 40 nM antibody (negative: OD<0.1))
binding result (mouse HER3 antigen): no binding (tested: 40 nM antibody (negative: OD<0.1))
binding result (murine HER4 antigen): no binding (tested: 40 nM antibody (negative: OD<0.1))
